Values of other authors, collected in patent US12576131B2, “Altering inflammatory states of immune cells in vivo by modulating cellular activation states” (Fred Hutchinson Cancer Center, priority 2018, dated 2026).

Tested on: IRF8 responsive genes
Settings: mutation of the K310 residue prevents SUMO binding

B1: murine IRF8 mutant: murine IRF8 with substitution of Lysine (K) at residue 310 with Arginine (R), SEQ ID NO: 17 (protein)
chain: MCDRNGGRRLRQWLIEQIDSSMYPGLIWENDEKTMFRIPWKHAGKQDYNQEVDASIFKAWAVFKGKFKEGDKAEPATWKTRLRCALNKSPDFEEVTDRSQLDISEPYKVYRIVPEEEQKCKLGVAPAGCMSEVPEMECGRSEIEELIKEPSVDEYMGMTKRSPSPPEACRSQILPDWWVQQPSAGLPLVTGYAAYDTHHSAFSQMVISFYYGGKLVGQATTTCLEGCRLSLSQPGLPKLYGPDGLEPVCFPTADTIPSERQRQVTRKLFGHLERGVLLHSNRKGVFVKRLCQGRVFCSGNAVVCKGRPNRLERDEVVQVFDTNQFIRELQQFYATQSRLPDSRVVLCFGEEFPDTVPLRSKLILVQVEQLYARQLVEEAGKSCGAGSLMPALEEPQPDQAFRMFPDICTSHQRPFFRENQQITV
For B1, the “increase in IRF8 specific gene transcription” value is listed as 2-5 fold.
